Source: US8492329B2, “Bioactive peptides and methods of using same” (Compugen Ltd., priority 2007, dated 2013)

Legend:
Type in all cases: cell-based
GPR135 (RXFP3) = target: T1, GPR135 (RXFP3) (Homo sapiens, UniProt Q9NSD7); experiment: cAMP HTRF assay on Euroscreen RXFP3 recombinant cells; settings: increasing concentrations, 30 min; FIG. 5
T1 construct: host or cells: CHO-K1 recombinant cell line (Euroscreen)
T1 sequence (Q9NSD7 1-469): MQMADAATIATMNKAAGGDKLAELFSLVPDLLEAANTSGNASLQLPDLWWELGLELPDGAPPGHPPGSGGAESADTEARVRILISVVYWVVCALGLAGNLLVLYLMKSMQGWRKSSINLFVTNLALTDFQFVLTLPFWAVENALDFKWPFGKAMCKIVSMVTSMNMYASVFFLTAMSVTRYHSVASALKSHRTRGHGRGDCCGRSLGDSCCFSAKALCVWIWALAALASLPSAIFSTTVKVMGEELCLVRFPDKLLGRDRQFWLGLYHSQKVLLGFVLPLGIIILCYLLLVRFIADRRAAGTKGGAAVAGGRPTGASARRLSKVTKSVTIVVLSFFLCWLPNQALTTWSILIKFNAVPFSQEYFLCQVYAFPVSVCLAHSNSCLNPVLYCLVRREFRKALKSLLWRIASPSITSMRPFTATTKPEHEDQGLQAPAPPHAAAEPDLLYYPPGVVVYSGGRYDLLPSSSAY
Method: The ability of P59C13V (SEQ ID NO: 6) and H3 Relaxin to activate CHO-K1 cells transfected by GPR135 (RXFP3), which is a non-LGR, Relaxin related receptor, was tested. The assay was performed by Euroscreen. For cAMP concentration analysis, Euroscreen cat. ES-656-A-cells (RXFP3, Euroscreen cat. ES-656-A) grown to mid-log phase in culture media without antibiotics were detached with PBS-EDTA, centrifuged and resuspended in assay buffer at a concentration of […]. The test was performed in 96 well plates. For agonist testing, 12 μl of cells (5×10^3 cells/well) were mixed with 12 μl of agonist Either H3-Relaxin or P59C13V (P59) (SEQ ID NO: 6) at increasing concentrations. The plates were then incubated for 30 min at room temperature. After addition of the lysis buffer, cAMP concentrations were estimated, according to the manufacturer specification, with the HTRF kit from Cis-Bio International (cat no 62AM2PEB).
.Relaxin 3 Fit (Eeuroscreen) was used as a positive control. RXFP3 (GPCR135) transfected cells were challenged with increasing concentrations of Relaxin 3 (H3 Relaxin—as a positive control—[…]) or P59C13V (P59) (SEQ ID NO: 6) (1 nM-3 uM).

LGR8 (RXFP2) [1] = target: T2, LGR8 (RXFP2) (Homo sapiens, UniProt Q8WXD0); experiment: pCRE-β-gal reporter assay in Forskolin-treated CHO-K1 cells transiently transfected with LGR8; parameters: expressed in transfected cells; host or cells: CHO-K1 (transient); settings: 5 uM Forskolin, FIG. 8A-B
Method: The ability of P74C13V (P74) (SEQ ID NO: 10) and P59C13V (P59) and P59C13V-Amide (P59-Amide) (SEQ ID NO: 6 and 5 respectively) to activate LGR7 (RXFP1) and LGR8 (RXFP2) was further tested by testing the ability of these peptides to influence cAMP activity induced by 5 μM Forskolin in CHO-K1 cells transiently transfected with LGR7/pCRE-β-gal or LGR8/pCRE-β-gal as compared to H2 relaxin and INSL3 respectively.
LGR8 transfected CHO-K1 cells were treated with 5 uM of Forskolin to stimulate cAMP. The cells were then challenged with increasing doses of INSL3 (as positive control), P74C13V (P74) (SEQ ID NO: 10), P59C13V with (P59-Amide) and without (P59) amide (SEQ ID NO: 5 and 6, respectively) and P59S-Amide (P59-S) (SEQ ID NO: 1). […] The results are presented as a percentage of Forskolin activity at various concentrations of the peptide (logarithmic scale). Each point represents three unrelated repeats for each experiment.

LGR8 (RXFP2) [2] = target: T2, LGR8 (RXFP2); experiment: cAMP accumulation (Hit Hunter cAMP kit) in CHO-K1 cells transiently transfected with LGR8; parameters: expressed in transfected cells; host or cells: CHO-K1 (transient); settings: 20 uM Forskolin, FIG. 2
Method: The ability of Peptides to affect cAMP concentration was examined in CHO-K1 cells transiently transfected with LGR7 (RXFP1) or LGR8 (RXFP2). The experiment measured cAMP concentration in response to the addition of the peptides.
LGR7 (RXFP1) or LGR8 (RXFP2) were transiently transfected into CHO-K1 cells as follows: Cells (12 million) were plated into T75 flasks on the day preceding transfection. Cells were transfected with a GPCR DNA and Gα16 using a lipid technique according to the manufacturer's recommendation. Cells were transfected for 5 hours, then re-plated into 96-well dishes (60,000 cells per well) and grown overnight. Transfected cells were plated into 24 wells of a 96-well plate. Cells were pre-treated with 0.5 mM IBMX (stimulation buffer) for 10 min at 37° C., then stimulated with either a positive control (Relaxin 2) or a candidate peptide (for Gs functional examination), followed by stimulation or a preincubation with 10 μM forskolin (for Gi functional examination). Following a 20 minutes stimulation by incubation with 1 μM of either positive control or the tested peptides, either with or without forskolin, intracellular cAMP was assayed using the Hit Hunter cAMP kit (DiscoveRx Corporation) according to the manufacturer's recommended protocol. Data was converted to nmol of cAMP by running a standard cAMP curve.
Relaxin was used as a positive control. cAMP level was elevated by pre-treatment with forskolin.
The transfected CHO-K1 cells were treated with 10 uM of Forskolin (Applied cell sciences (ACS)) for 10 minutes and then challenged with 1 uM of H2 Relaxin (ACS) (as a positive control), 1 uM of Peptide P59C13V (P59) (SEQ ID NO: 6), and Peptide P74C13V (P74) (SEQ ID NO: 10).
A dose response effect of P59C13V (P59) and P74C13V (P74) on CHO-K1 cells transiently transfected with LGR8 (RXFP2) was further examined (Method as above). CHO-K1 cells transiently transfected with LGR8 (RXFP2) were treated with 20 uM of Forskolin for 10 minutes and then challenged with either INSL3 (as a positive control), P59C13V (SEQ ID NO: 6) or P74C13V (P74) (SEQ ID NO: 10) at increasing concentrations from 1 nM to 10 uM.

T2 sequence (Q8WXD0 whole entry): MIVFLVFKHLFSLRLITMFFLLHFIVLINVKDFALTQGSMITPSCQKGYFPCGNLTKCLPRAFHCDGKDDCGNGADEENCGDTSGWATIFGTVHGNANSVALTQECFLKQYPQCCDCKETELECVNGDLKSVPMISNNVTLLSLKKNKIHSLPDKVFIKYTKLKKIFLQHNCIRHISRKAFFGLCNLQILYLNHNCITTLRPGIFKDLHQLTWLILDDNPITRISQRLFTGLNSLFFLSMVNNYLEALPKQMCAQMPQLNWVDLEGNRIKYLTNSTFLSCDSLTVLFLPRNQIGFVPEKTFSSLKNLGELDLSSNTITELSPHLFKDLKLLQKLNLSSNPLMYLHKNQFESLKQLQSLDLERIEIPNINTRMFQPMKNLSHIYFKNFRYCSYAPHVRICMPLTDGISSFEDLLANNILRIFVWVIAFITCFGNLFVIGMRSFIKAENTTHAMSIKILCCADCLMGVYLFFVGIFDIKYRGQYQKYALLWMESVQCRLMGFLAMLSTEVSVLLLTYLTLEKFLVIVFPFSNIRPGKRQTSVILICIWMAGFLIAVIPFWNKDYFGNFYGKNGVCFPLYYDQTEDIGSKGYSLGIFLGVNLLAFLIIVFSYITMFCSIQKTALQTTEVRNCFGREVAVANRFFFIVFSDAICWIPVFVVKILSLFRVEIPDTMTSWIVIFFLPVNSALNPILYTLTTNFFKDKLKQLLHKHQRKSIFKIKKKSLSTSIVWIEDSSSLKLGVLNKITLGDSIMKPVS

Row | cAMP activation (Gs) of RXFP3 (GPR135 (RXFP3)) | change in cAMP, dose response, higher concentrations (LGR8 (RXFP2) [2]; concentrations higher than 100 nM (up to 10 uM)) | change in cAMP, dose response, lower concentrations (LGR8 (RXFP2) [2]; concentrations lower than 100 nM) | Substance | CRE activation pattern relative to Forskolin (LGR8 (RXFP2) [1])
1 | strong cAMP stimulation |  |  | H3 Relaxin: Relaxin 3 (Euroscreen), ligand of RXFP3, positive control [reference compound] | 
2 |  | sharp decrease (Gi effect) | slight dose dependent increase | INSL3: Leydig insulin-like 3 peptide, high affinity ligand of LGR8, positive control (chain 1 AAATNPARYCCLSGCTQQDLLTLCPY; chain 2 PTPEMREKLCGHHFVRALVRVCGGPRWSTEA) [reference compound] | increased activation at higher concentrations
